Source: the nanobody polyreactivity screen of Harvey et al. (2022)

Assay: yeast display, Sf9 membrane polyspecificity reagent, FACS + sequencing; frameworks hold sequencing errors
Procedure, shortened: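 A nanobody's polyreactivity label depends on the gate it was sorted from. Yeast display cells were stained with 10% biotinylated, detergent-solubilized Sf9 membrane reagent for 1 hour at 4 °C, enriched on streptavidin microbeads and sorted by FACS. The low and high (top ~1%) gates were set on anti-HA fluorescence for expression and streptavidin fluorescence for reagent binding.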

Sequence: QVQLVESGGGLVQAGGSLRLSCAASGFTIRLYAMGWYRQAPGKERELVAAITSGGSTYADSVKGRFTISRDNAKNTVYLQMNSLKPEDTAVYYCNAEALVNGGYDYWGQGTQVTVSS
- polyreactivity (PSR sort gate): high polyreactivity

Sequence: QVQLQEGGGGLVQAGGSLRLSCAASGYISYGDVMGWYRQAPGEERELVASIGLDATTNYADSVKGRFTISRDNAKITVYLQMNSLKPEDTAVYYCAADVGSGVLCGYWGQGTQMTVSS
- polyreactivity (PSR sort gate): high polyreactivity

Sequence: QVQLVESGGGLVQAGGSLRLSCAASGSTFYKNAMGWYRQAPGKERELVAVINASGDSTYYADSVKGRFTISRDNAKNTVYLQMNSLKPEDTAVYYCAADHRGEYDYWGQGTQVTVSS
- polyreactivity (PSR sort gate): low polyreactivity

Sequence: QVHLVESAGGLVQAGGSLRLRCDASGRTFVLYTMGWYRQAPGKERELVAAIYGSGGRTYYADSVKGRLTISRDNAKNTVYLQMNSLKPEDTAVYYCAAYCQGLPLYGYWGQGTQVTVSS
- polyreactivity (PSR sort gate): high polyreactivity

Sequence: QVQLVESGGGLVQAGGSLRLSCAASGSTFTSNAMGWYRQAPGKERELVASISGSGGRTYYADSVKGRFTISRDNAKNTVYLQMNSLKPEDTAVYYCARRHSVRTVHGYDYWGQGTQVTVSS
- polyreactivity (PSR sort gate): low polyreactivity

Sequence: QVQLVESGGGLVQAGGSLRLSCAASGSIFVYYTMGWYRQAPGKERELVASITSGGNTNYADSVKGRFTISRDNAKNTVYLQMNSLKPEDTAVYYCAADYQTVTQADWGTVYDYDYWGQGTQVTVSS
- polyreactivity (PSR sort gate): low polyreactivity

Sequence: QVQLVESGGGLVQAGGSLRLSCAASGGIFKAYAMGWYRQAPGKERELVAVITIGGRTTYADSVKGRFTISRDNAKNTVYLQMNSLKPEDTAVYYCAKTNYNWLSTAEHDYWGQGTQVTVSS
- polyreactivity (PSR sort gate): low polyreactivity

Sequence: QVQLVESGGGLVQAGGSLRLSCAASGSTYQGNAMGWYRQAPGKERELVAAISRSGGSTYADSVKGRFTISRDNAKNTVYLQMNSLKPEDTAVYYCAAYSGVGYLWFDYWGQGTQVTVSS
- polyreactivity (PSR sort gate): low polyreactivity

Sequence: QVQLVESGGGVVQAGGSLRLSCAASGITFQGDDMGWYRQAPGKEREFVAAITWNGGSTYYADSVKGRFTISRDHAKNTVFLQMNSLKPEDTAVYYCAADWSITYGDGGYWGQGTQVTVSS
- polyreactivity (PSR sort gate): low polyreactivity

Sequence: QVQLVESGGCIVQAGGSLRLSCAASGRNLAPNAMGWSRQAPGKERELVAGITWSGGSTYYADSVKGRFTISRDNAKNTVYLPMNSLKPEDTAVYYCAACRSFPGYGLYYYWGQGTQVTVSS
- polyreactivity (PSR sort gate): low polyreactivity

Sequence: QVQLVESGGGLVQAGGSLRLSCAASGFTFVEYAMGWYRQATGKERELVAAITSGGSTYYADSVKGRFTISRDNAKNTVYLQMNSLKPADTAVYYCNAEGVVVAISHFSVQDGYWGQGTQVTVSS
- polyreactivity (PSR sort gate): low polyreactivity

Sequence: QVQLVESGGGLVQAGGILRLSCAASGIISYDYDMGWYRPSPGKERELVAAISTSGGTTYYADSVKGRFTISRDNAKNTVYLQMNSLKPEDTAVYYCAADNYVGYHWYNYWGQGTQVTVSS
- polyreactivity (PSR sort gate): high polyreactivity

Sequence: QVQLVESGGGLVQAGGSLRLSCAASGRIFSRYAMGWYLQAPGKERELVAAISWSGGSTYYADSVKGRFTISRDNAKNTVYLQMNSLKPEDTAVYYCAAKRQYTEYNYWGQGTQVTVSS
- polyreactivity (PSR sort gate): high polyreactivity

Sequence: QVQLVESGGGLVQAGGSLRLSCAASGSIFVGYAMGWYRQAPGKERELVAAITKRGGSTSYADSVKGRFTISRDNAKNTVYLQMNSLKPEDTAVYYCAKLYYRHLYEYDYWGQGTQVTVSS
- polyreactivity (PSR sort gate): high polyreactivity

Sequence: QVQLVESGGGLVQAGGSLRLSCAASGRTFWRNTMGWYRQAPGKQREFVAASTFSGVRTYYADSVKGRFTISRDNAKNTVYLQMNSLKPEDTAVYYCAKSRQYIGGFDYWGQGTQVTVSS
- polyreactivity (PSR sort gate): high polyreactivity

Sequence: QVQLVETGGGLVQAGGSLRLSCAASGFTFYNNAMGWYGQAPGKERELGAVITSNGGRTYYADSVKGRFTISRDNAKNTVYLQMNSLKPEDTAVYYCAKDYKAMYLYHYRISGGDVDYWGQGTQVTVSS
- polyreactivity (PSR sort gate): low polyreactivity

Sequence: QVQLVESGGRLVQAGGSLRLSCAASGITFVYYAMGWYRQAPGKERELVASISSGGSTYYADSVKGRFTISRDNAKNTVYLQMNSLKPEDTAVYDCAAPTGWYPAYGEYEYWGQGTQVTVSS
- polyreactivity (PSR sort gate): low polyreactivity

Sequence: QVQLVESGGGLVQAGGSLRLSCAASGFTFRYYAMGWYRQAPGKERELVAAITGSGGRTYYADSVKGRFTISRDNAKNTVYLQMNSLKPEDTAVYYCARDVDPRGRYYWGQGTQVTVSS
- polyreactivity (PSR sort gate): high polyreactivity

Sequence: QVQLVESGGGLVQAGGSLRLSCAASGSTFQYNVMGWYRQAPGKERELVAAITNRDGSTYYADSVKGRFTISRDNAKNTVYLQMNSLKPEDTAVYYCAAPVWLWADRYDSWGQGTQVTVSS
- polyreactivity (PSR sort gate): low polyreactivity

Sequence: QVQLVESGGGLVQAGGSLRLSCAASGSTIKYYAMGWYRQAPGKERELVAAINWSGDSTYYADSVKGRFTISRDNAKNTVYLQMNSLKPEDTAVYYCAVRYQKRAYYGSNYWGQGTQVTVSS
- polyreactivity (PSR sort gate): high polyreactivity

Sequence: QVQLVESGGGLVQAGGSLRLSCAASGSIFASNAMGWYRQAPGKEREFVAAITWRTDRTYYADSVKGRFTISRDNAKNTVFLQMNSLKPEDTAVYYCAADTWFYRFYYWGQCTQVTVSS
- polyreactivity (PSR sort gate): high polyreactivity

Sequence: QVQLVESGGGLVQAGGSLRLSCAASGYTFSDNAMGWSRQAPGKERDLVAAITSGVSKYFADSVKGRFTISRDNAKNTVYLQMNSLKPEDTADYYFAKDVAVYADLYQGAPYGYWGQGTQVTVSS
- polyreactivity (PSR sort gate): low polyreactivity

Sequence: QVQLVESGGGLVQAGGSLRLSLLPPDSPSTTMLWDGIDRRLGKKGSWLPVFLPSGGTTYADSVKGRFTISRDNAKNTVYLQMNSLKPEDTAVYYCAASYYRTRWSWMYYWGQGTQVTVSS
- polyreactivity (PSR sort gate): low polyreactivity

Sequence: QVQLVESGGGLVQAGGSLRLSCAASGRTFRWNGMGWYRQAPGKERELVAVINRGGSTTYADSVKGRFTISRDNAKNTVYLQMNSLKPEDTAVYYCAKDHYYAGTWRYGYWGQGTQVTVSS
- polyreactivity (PSR sort gate): high polyreactivity

Sequence: QVQLVESGGGLVQAGGSLRLSCAASGSIFFYYTMGWYRQAPGKEREFVAAISGSGGSTYYADSVKGRFTISRDNAKNTVYLQMNSLKPEDTAVYYCAAGLRLDLGAMYYWGQVTQVTVSS
- polyreactivity (PSR sort gate): low polyreactivity

Sequence: QVQLVESGGGLVQAGGSLRLSCAASGSTFVQYAMGWYRQAPGKERELVAAISGSGGRTYYADSVKGRFTLSRDNAKNTVYSHMNSLKPEDTAVYYCAAAYNTDFYYWGQGTQVTVSS
- polyreactivity (PSR sort gate): high polyreactivity

Sequence: QVQLVESGGGLVQAGGSLRISCAASGRIFATNAMGWYRQAPGKERELVAVITGGGDTNYADSVKGRFTISRDNAKNTVYLQMNSLKPEDTAVYYCAAEGSFYRYHVGSDYWGQGTQVTVSS
- polyreactivity (PSR sort gate): low polyreactivity

Sequence: QVQLVESGGGLVQAGGSLRLSCAASGRNFYYYAMGWYRQAPGKERELVAAISASGGSTYYADSVKGRFTISRDNAKNTVYLQMNSLKPEDTAVYYCAARATTSQYNYYYWGQGTQVTVSS
- polyreactivity (PSR sort gate): high polyreactivity

Sequence: QVQLVESGGGLVQAGGSLRLSCAASGRIFPYNAMGWYRQAPGKERELVAAIDWRDNTYYADSVKGRFSISRDNAKNTVYLQMNSLKPEDTAVYYCNVDYTDYFLNKYDYWGQGTQVTVSS
- polyreactivity (PSR sort gate): low polyreactivity

Sequence: QVQLVESVGGLVQAGGSLRIICAASGITLAWYSMGWYRKAPGKERELVASISSSGSTNYADSVKGRFTISRDNAKNTVYLQMNSLIPEETAVYYCNKDYLLLHYYIYVIEGDYWGQGTQVTVSS
- polyreactivity (PSR sort gate): low polyreactivity

Sequence: QVQLVESGGGLVQAGGSLRLICAASGSIFYIYAMGWYRQAPGKERELVAVIDNSGSTNYADSVKGRFTISRDNAKNTVYLLINSLKPEDTADYYCLKLWLWASYLYDYWGQGTQVTVSS
- polyreactivity (PSR sort gate): low polyreactivity

Sequence: QVQLVESGGGLVQAGGSLRLSCAASGSIFFWNDMGWYRQAPGTERELVAAISWSGGSTSYADSVKGRFTISRDNAKNTVYLQMNSLKPEDTAVYYCAADYYYRTLYGYIGMDYWGQGTQVTVSS
- polyreactivity (PSR sort gate): low polyreactivity

Sequence: QVQLVESGGGLVQAGGSLRLSCAASGSIFGSYAMGWYRQAPGKERELVAAISRSGGRTYYADSVKGRFTISRDNAKYTVYLQMNSLKPEDTAVYYCAADTYIGYDYWGQGTQVTVSS
- polyreactivity (PSR sort gate): high polyreactivity

Sequence: QVQLVESGGGLVQAGGSLRLSCAASGIIFLLYSMGWYRQAPGKERELVAAITNGGRTNYADSVKGRFTISRDNAKNTVYLQMNSLKPEDTAVYYCNAVLSVPDYTLFDYWGQGTQVTVSS
- polyreactivity (PSR sort gate): low polyreactivity

Sequence: QVQLVESGGGLVQAGGSLRLSCAASGRILGYYSMGWYRQAPGKERELVAGITSGGSTYYADSVKGRFTISRDNAKNTVYLQMNSLKPEDTAVYYCATVHGVYQRRYYFWGQGTQVTVSS
- polyreactivity (PSR sort gate): high polyreactivity

Sequence: QVQLVESGGGLVQAGGSLRLSCAASGRIFRGNVMGWYRQAPGTERELVAAISGSGGSTYYADSVKGRFTISRDNAKNTVYLQMNSLKPEDTAVYYCAAGTAKTPRRSVGYWGQGTQVTVSS
- polyreactivity (PSR sort gate): high polyreactivity

Sequence: QVQLVETGGGLVQAGGSLRLSCAASGSIFLKYAMGWYRQAPGKERELVAAISWSGGRTYYADSVKGRFTISRDNAKNTVYLQMNSLIPEDTAVYYCAAAGRVNNGYRGYGYWGQGTQVTVSS
- polyreactivity (PSR sort gate): high polyreactivity

Sequence: QVQLVESGGGIVQAGGSLRLSCAASGFIISYNAMVWYRQAPGKERELVAAISSRGGSTYYADSVKGRFTISRDNAKNTVYLQMNSLKPEDTAVYYCAVASRRVYTAPYDYWGQGTQVSVSS
- polyreactivity (PSR sort gate): high polyreactivity

Sequence: QVQLVESGGGLVQAGGSRRLSCAASGRTFRNYAMGWYRQAPGKERELVAAINFSGDGTYYADSVKGRFTISRDNAKNTVYLQMNSLKPEDTAVYYCAADVEYYRDVPQQVYVSDDYWGQGTQVTVSS
- polyreactivity (PSR sort gate): low polyreactivity

Sequence: QVQLVESGGGLVQAGGSLRLSCAASGNTFYKNTMGWYRQAPGKERELVAAISQRGTRTYYADSVKGRFTISRDNAKNSVYLQLYSLNPEDTAVYYCATDLSQVGFDYWGQGTQVTVSS
- polyreactivity (PSR sort gate): high polyreactivity

Sequence: QVQLVESGGGLVQAGGSLRLSCAASGRIFHGNAMGWYRQAPGKERELVAAISRSGSRTYYADSVKGRFTISRDNAKNTVYLQMNSLKPEDTAVYYCAAVTFSYQDYYWGQVTQVTVSS
- polyreactivity (PSR sort gate): high polyreactivity

Sequence: QVQLVESGGGLVQAGGSLRLSCAASGGTFRRYAMGWYRQAPGKEREIVAAITISGGNTYYADSVKGRFTISRDNAKNTVYLQMNSLNPEDTAVYYCAADYAYNKYLSVEYWGQGTQVTVSS
- polyreactivity (PSR sort gate): low polyreactivity

Sequence: QVQLVESGGGLVQAGGSLRLSCAASGRSFRRYAMGWYRQAPVKDRELVATNTSNGGSTYYADSVKGRFTISRDNAMHTVDFQLNSLKPEDTAVYYCARDLTYYRSRYDYWGQGTQVTVSS
- polyreactivity (PSR sort gate): high polyreactivity
